Laboratory results reported in a protein production outcome set (Wang et al. 2014).

Assay: label from the status in PepcDB records
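Note: failed if final PepcDB status was selected cloned or expressed and not failed if soluble or beyond.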

## MSIRLTNISKKFGQFQALSPLNLDIQEGEMIGLLGPSGSGKTTLLRIIAGLEGADSGHIHFGNRDVTQVHVRDRRVGFVFQNYALFRHMTVADNVAFGLEVIPKKQRPSAAEIQKRVSHLLEMVQLGHLAQRYPEQLSGGQKQRIALARALATQPEVLLLDEPFGALDAKVRKELRRWLRSLHDELKFTSVFVTHDQDEALELSDRVVVMSNGNIEQVNTPIELYAQPNSRFVFDFLGNVNRFEANWQQNRWTNGDAFIVPPEQTPLQQNGALYVRSHELALADKPNSQAHIPFTIVAITPIGAEVRVELAPIGWQSEELWEAKFTHHHLQELGLQKGSVVYATPRTGYFFGKQGDGSPIRQSWPFLPPGSLAFDI
  protein production: failed

## MFIGRNQELTALNKLYQEDSFQFAVIYGRRRIGKTSLINQFLKGKRAIYFTGLEENALENLARFSDAIHAYEDPSYLDGPNFASFEQAFKYLVHLSEKNDRLILVIDEFPYLAKAYPPISSMLQSYIDHYFKQNKLFLILCGSSMPFMEKQVLGYKSPLYGRRTAQFKLKPFSLHDAEEFFPQLNKEEVFELNAITGGIPLYLSLMSPKKSLRENIKDNFLTTSAMLYAEPMSLLNQELREPASYSSIISAIAAGASRQSEISTKTGIASGALSPYLDNLIDLGIVEKRLPVTELDKARSRKTIYAIKDGMFRFWYTFVGKRVSFIERGITEPILDYIIKQLPHFMGPEFEKLSQEYLWSKLFDPDLVPEPFVNLGNWWGPDPKEKKQVEMDIVGFDDQKLNGYFGECKWKNEPISADILETLIYRSILFPTPKKNYYLFSKTGFTDKCQQLAQQVDCHLITFDMM
  protein production: failed

## LQASCSDDQEHRLGSLDFYTGVFALEKSRIAEISNRATLELQKMATSGEPMWLRSVETGREILNYDEYLKEFPQAQASSFPGRKTIEASRDAGIVFMDAHKLAQSFMDVGQWKETFACLISKAATVDVIRQGEGPSRIDGAIQLMFGEMQLLTPVVPTREVYFVRSCRQLSPEKWAIVDVSVSVEDSNTEKEASLLKCRKLPSGCIIEDTSNGHSKVTWVEHLDVSASTVQPLFRSLVNTGLAFGARHWVATLQLHCERLVFFMATNVPTKDSLGVTTLAGRKSVLKMAQRMTQSFYRAIAASSYHQWTKITTKTGQDMRVSSRKNV
  protein production: not failed

## MQLLPGPVRRFAAWCAVILLASGVVYVAIRLCVEFRTAVTPALLALLGTALLRPLHARLVKAHVQRSLAAGLTCAAVLAVVGGAVYIVVSALVETGDQIVTSLRDAAQGIADHFGAAGTSLDDLASNARELLGKFGGTAASGVVTGISVVGEMIAMAVLALLLVFFFLRDSDRAVTTVRALAPPGGADTVEAVARRAFGAVEGFMRGTTLIALIDAFCITVGLLVLRVPGAVGLGALVFVGAYIPYLGAFISGAVAVLVALADRGFVIALWALGVVLAVQVLEGHVLQPMIQSRTVQMHPAVVLLALTAGASVAGILGMLLAVPLTAAAFGVVHELQARYGVSTAASGPDAGPAPSTGAADS
  protein production: failed

## MGTEVSTSPTSLIDQTVVPGDVVLDLSNMTNQTIKLGSGLRQDNEVISVMRAGKLRYSKPNKYWVESSHKRYVPRPEDHVLGIVVDCKGENYWIDIKGPQLALLPVLAFEGANRRNYPKFEVSTLLYTRVVKTNTGMNPELSCVDESGKAAGFGPLKDGFMFETSTGLSRMLLSSPTCPVLEALGKKLSFETAFGLNGRCWVHAAAPRIVIIVANALMNSETLSGTQQRIMVEKLLEKISD
  protein production: failed

## MKILAISGSARRNSTNTAMLQAVRAVAPGEIEISIFDGVGRLPVFSPDLEGESLPEVVRNLIDVIAQSDGVIIASPEYVRSIPGGLKNAIDWLVSGDDIVHKPIALLHASHRGDDMLAGLRTVLATITDRFAGDIFLRLPLMKLEPADVLKAVEAAENRSRVQAYLQAFSAYCMADSKTA
  protein production: failed

## MATFEEVSVLGFEEFDKAVKEHESKTIFAYFSGSKDTEGKSWCPDCVEAEPVIREGLKHVTEDCVFIYCQVGDKPYWKDPNNDFRQKLKITAVPTLLKYGTPQKLVESECCQSSLVEMIFSED
  protein production: not failed

## MLFESINTGCLDGNDTPWMPFAPYSNDVMVKYFKIDPVRGETITLLKAPAGMEMPRHHHTGTVIVYTVQGSWRYKEHDWVAHAGSVVYETASTRHTPQSAYAEGPDIITFNIVAGELLYLDDKDNIIAVENWKTSMDRYLNYCKAHGIRPKDLSTFEG
  protein production: not failed

## CSACGETVMPGSRKLEYGGQTWHEHCFLCSGCEQPLGSRSFVPDKGAHYCVPCYENKFA
  protein production: not failed

## MNSAALKSCLERENALVVEFLHALEAETEALMDRRAHESLQAAVQRKETLADDLAQLGAERDALLSGAGLASGPAGTDAAAAAHPELGPLWQALQANAAQAREHNQRNGTLIAVNLRHTQESLDALRQAAGTGAAATYDAQGRGKRGYSSA
  protein production: not failed

## MKPQLSWKVGGQQGEGIESTGEIFATAMNRKGYYLYGYRHFSSRIKGGHTNNKIRVSTTPVHAISDDLDILIAFDQETIDVNHHEMREDSIILADAKAKPVKPEGCHAQLIELPFTATAKELGTALMKNMVAIGATSALMNLNTNTFEELITNMFSKKGDKVVEVNIQALNEGYQLMQSRLPEIDGDFELESTDALPHLYMIGNDAIGLGAIAAGSQFMAAYPITPASEVMEYMIANISKVNGAVIQTEDEIAAVTMAIGANYGGVRAFTASAGPGLSLMMEAIGLSGMTETPLVIINTQRGGPSTGLPTKQEQSDLMQMIYGTHGDIPKIVVAPTDAEDAFYLTMEAFNLAEQYQCPVIVLSDLQLSLGKQTVEKLDYNRIEIKRGEIIQSDIEREEDDKGYFKRYALTSNGVSPRPIPGVKGGIHHITGVEHNEEGKPSESASNRQQQMEKRMRKIEQLLIESPVEANLQHEDADILYIGFISTKGAIQEGSNRLNQQGIKVNTIQIRQLHPFPTSVIQDAVNKAKKVVVVEHNYQGQLASIIKMNVNIHDKIENYTKYDGTPFLPHEIEEKGKIIATEIKEMV
  protein production: not failed

## MTIKEFIKKSRLKTWDVIIIAILVLGSFLPLVVFAMQNRGQEAATYQAVLKVDNKVIKVFDLKKDGPHYTYKYEAKDGDYNLIEVDGDRIRVKEANCADLVDVRRGWISKPGETPIACLPHNLFITVEASDGSEDGSLIY
  protein production: failed

## MIMTSDIKLLDYLRVRRSTPALQLSEPGPSKGEIEEILRLAVRVPDHGKLAPWRFVVYRGEERVRLSEAALRIALEKNPDLDLQQQEAERTRFTRAPVVIAVISTAKPHFKIPEWEQVMSAGAVCLNVIFAANASGFAANWLTEWLAFDPAFLAEIGVSAEEKVAGYIHIGSTTFPPVERPRPELADVVTWVGDV
  protein production: not failed

## MFTGFNWQQMISAFIVLFAVIDIIGSIPIIINLKEKGKDVNATKATVISFALLIGFFYAGDMMLKLFHVDIESFAVAGAFVIFLMSLEMILDIEIFKNQGPIKEATLVPLVFPLLAGAGAFTTLLSLRAEYASVNIIIALILNMLWVYFVVSMTGRVERFLGKGGIYIIRKFFGIILLAISVRLFTANITLLIEALHKS
  protein production: failed

## IARLDWSATPLGESGHWPQSLRTAVDIVIHSPMPMLLLWGAELTQIYNDGFALLAGNKHPSAFGHPAHLTWPELMDFTDPIYRAVLNGQVRTFSEQRFSLQRTNGSEYDLWLDLTYSPIRNERGDVAGILVTAIETNERRRIALELQQR
  protein production: failed

## MKPNFSRDYQLKWLFYVYCVRSEVGEEEEKKKVTKKTRKRVRFDLNVQTYEPIVPSRYENACSDDEEGKGGRSKGSSAIDKKPEDLSSRSVYPSNYRYHNCVDSFEDEDDEMGYGESDLEDEDYYTDNENDYEDDADDEDEEEEEENEQDVAPLLNPVENLAQWKAVKARPVKVKRVMKENVEEDMDDQAKPLLKEIIVNTSLSNWLASPKSLHANGSSKRSPIVDITNMENR
  protein production: failed

## AQKLSATSRILSSSRGPAPDDIADFFGTDRAAQHITLRRLRLGNGRPYAIDNGWYNSEFAPDLLENDVYNSVYSILDRVYGVPVTQAEQTVTAVAADEDTARLLDVTPGAPLLRILRQSLSGDKPVEWCVSLYRTDRYSLKTLVTRSEDL
  protein production: not failed

## MPIKKNSHVKTTEMNKYPVLQLKRDPEAIHHYLNGEIRILVPTEYQRIKNEISQKRHRTLFDVLMITGMRYVEVQRLWDHKEWYLKKKNIIHLPEEAQKKHKRTQQERTIHPLPGMFELLLDDFFEARKPPAESNWNRDLRKWAKDAGLNPYGLSAKTTRKTLESWCIAAGMLESTVCLRQGHDNLTSMKHYQGLAFSADELKDIEKQLTVWGMLK
  protein production: failed

## MEEFQFTKRVHNILKIAAEEGESNIIQPVHLFIGMCKEGTGVCSELYMYLFRNVGTDFLEKLSLRKQDDLTDQEYEKIGQYKVSYKVLEILQIAKKRMERFQQVLMNEGHVIYALFRADTFIENPQIQKEILRIVEEPRDLAVDLKCFVPAYTHLTCHVRKANSSDFGKLVSFVSEEFGERWLHSIEYGFRTYKENVPIYIAEQKEVIVGFACYDVVRGKKGLFGPMGTAKQNRVKSVGKQLLHCSLHSMKQDGYEYAIIGQAGPVEFYERCCNARLIPIMDY
  protein production: failed

## MNFVTFQFVVFLVITVIVFMMMSPYYRKYFILLCSYFFYGTWSVPLISVILFSTSVDYYLGKKIHESHSQTHKKLYLTLSILVNCSILVYFKYMNFFISSIDAIGFSLGATQLLLNPMHIILPLGVSFYTFEAISYIVDIYRGEKPASSWLNYNFYIMYFPHLISGPIVRYKELHAQYESKIELPETSRLKEGFQLLLYGFIFKLVIADSMASISDPLFDKYQTIGHLESWLASIAFTIQIYFDFLGYTHIARGVSLFFNIKLPVNFNHPYNARNISEFWQRWHITLSLWIRDYLYIPLGGNRGRLYQTVNNLLITMFIAGLWHGASWNYAIWGTYHGCLLAVYHVFRFYYIKRNLQTENQLMKIGSIIMTYSLVVIGWVIFRSTSFEQAFTILGKMYDIPGFVQEFAMNQRASAYTDSLFYLVGMFALCFIGPTFKSIETKILSAVQPFWIKKWLYSLSIFTVLIFMFSPVKPFIYFVF
  protein production: failed

## MKNIAFFDFDGTITSTDSYTPFIFQTIPASRMKKGKFLLAPYILGYRLKLIRGTVLRSKIFKLGFAGLDADEIQQKGLSFSQSYLPQIIRPQALERIQWHLAQGDHVVVVSASMDVYLKPWCTQYGLDLLCSEVDTINGKITGIYKNGDCSREVKKQRILDNYDLSLYAAIYAYGDTIEDQAMLSLATHGFYRWQPINPR
  protein production: failed

## MRVCAVVVTYNRKDLLVECLEALRRQTGPLDAIYIIDNASTDGTPELLRSRGYRDGAVIENPLDGSEIVIRYVRLPVNTGGAGGFHEGVKRAFHDGYDWIWLMDDDAEPLPDSLQGLLRYADDDTAALANLKVSPDGRPQYIHRGFFDFDSFGTFVRPVTEDDLREETLEIDHASFVGILINSDSVREIGFPRKEFFLHYDDVEYCLRLRSTGKIILVPGSLILHKEAAERGNLTKGLFGREIPVVPYDKLWLRYYGVRNSIWLRRKEMGRARLFIFMVRAILLSVAAQIITGIREKPFRRVRFILSAYSDGLRGRFDNEKPRRILYG
  protein production: failed

## MTAPDRSPPRYKSDLIYGLNDRPHFSAAIFAALQHVLASFVGIISPTLIFGGVLGLESELPYLISMALFVSGLGTFVQARRLGPIGSGLLCVQGTSFSFISVLLSAGFMVKGRGGDTNEILSTIFGICFVAAFIEMFLSQFIGKLRKLITPVVTGTIITLMGLSLIKVAVTDMAGGYGASDLGAASNLGLAALVLLTIVVLNRFNHPMLRLGSIVIGLTLGFVVAWMLGRVDMAAMPEVPLVSVPVPFKYGFSFDLIAFIPLAVIFLISPLEAAGDLTANSMISQQPVKGPLYIKRIKSGLLADGFNSAVAAVFNSLPMVTFAQNNGVIQLTGVASRYVAYFIAGLLVLLGLFPVIGAVLQLMPKPVLGGATLIMFGTVAVAGIKILAEAGLHRRNVLIVAISLGMGLGVAAVPEVLRELPKALHNIFESPITVGAFCAIFLNIFLPEEFLELEEDEFDPEAATLKVMQDPDMSGKANS
  protein production: failed
